According to patent publication US20240005439A1, “IMAGING METHODS AND RADIOTRACERS FOR USE THEREIN” (VESTLANDETS INNOVASJONSSELSKAP AS (VIS), priority 2020, published 2024):

Columns and labels:
Iohexol plasma clearance = type: in vivo, rats; details: for GFR relative to the initial control value (iohexol): CKD rats; for clearance: rat, plasma, 105 mg
[1] = Iohexol plasma clearance in mice; type: in vivo; details: mouse, intravenous, 100 μl (iohexol diluted 1:10 from stock solution), male C3H mice, read-out: GFR with the iohexol plasma clearance method
Procedure: Male mice (C3H, n=8) anesthetized with isoflurane were injected i.v. in the tail vein with 100 μl iohexol (diluted 1:10 from stock solution). 15 minutes following the injection, the mice were re-anesthetized with isoflurane and were kept anesthetized until termination of the experiments. Blood samples (each 20 μl) were collected from the retro-orbital space at 15, 30, 45 and 60 minutes.
Iohexol clearance was calculated by a bi-exponential method as: GFR=Dose/AUC, where AUC is the area under the plasma iohexol concentration curve. In addition, the slope of the second mono-exponential phase of the plasma disappearance curve for iohexol (k) was calculated using blood samples taken at 60, 90, 120, and 180 minutes.
For measurement of iohexol, all blood samples were centrifuged at 2000 g for collection of plasma. Plasma samples (5 μl from rats and 1 μl from mice) were immediately diluted 7.5-60 times by 0.1% (v/v) trifluoroacetic acid (TFA) in water and their iohexol concentrations were measured by two-dimensional HPLC using the Thermo Scientific™ Dionex™ UltiMate™ […] Rapid Separation series hardware, column switching and Chromeleon Chromatography Data System software (7.2.10). […] Both columns were washed separately by 99.9% acetonitrile/0.1% TFA, re-equilibrated in 0.1% TFA in water and ready for the next sample 9 minutes after injection. […]

[2] = Stability and plasma protein binding of labelled proteins by SEC-HPLC; type: physicochemical; details: high resolution size exclusion chromatography
Procedure: The stability and plasma protein binding of stock solutions of ^18F-cytochrome C and ^124I-cystatin C was evaluated by high resolution size exclusion chromatography (SEC-HPLC) after 12 h storage in room temperature and after 8 days of storage in fridge (4° C.).

[3] = set-up: species or system rats; details: rat, in vivo
Procedure: (§1) All animals were scanned using the same scanner, anesthesia procedure, monitoring and positioning as mentioned above. First, CT semicircular scans (same settings as contrast CT) were acquired from the lower edge of the ribs to the pelvis for anatomical reference and attenuation correction for PET. Following CT, a 10-minute dynamic PET acquisition was initiated, which was started 30 seconds before the bolus injection (30 sec duration of the injection) of 5-10 MBq ^18F-cytochrome C diluted in 1 ml saline through a tail vein catheter. Images were reconstructed in 1-5 coincidence mode using the Tera-Tomo 3D reconstruction algorithm (Mediso) with 4 iterations/6 subsets, corrected for attenuation and scatter with a resulting 0.4 mm^3 voxel size. The PET acquisition was reconstructed to 15 timeframes: 6×5 s; 6×30 s; 3×120 s.
To investigate the initial distribution, uptake and excretion of ^18F-cytochrome C in the body, two rats were dynamically scanned by PET-CT for 30 minutes. […] The ^18F signal peaked over the large abdominal vessels in less than 1 minute and appeared in the bladder in less than 10 minutes. After 10 minutes, the bladder signal increased exponentially and the kidney signal leveled out reflecting urinary excretion of ^18F-cytochrome C breakdown products.

[4] = PET GFR scanning (kidney activity divided by AUC); type: in vivo, rats; details: for GFR relative to the initial control value (PET-CT): CKD rats
Procedure: as §1
SD male rats (n=8) were fed by 0.35% adenine in the chow (Altromin, Denmark) for 7 weeks to induce chronic kidney disease (CKD). PET-CT GFR scanning was performed at baseline and at 3, 5 and 7 weeks after initiation of adenine feeding. Iohexol clearance (described below) was performed at baseline and after 3, 5 and 7 weeks of adenine feeding. Blood samples were taken every second week for creatinine measurements.
All images were analyzed using Inter View Fusion version 3.01.021.0000 (Mediso), and CT and PET images were automatically aligned. The sphere selection volume of interest (VOI) function was used to collect the signal from the large abdominal vessels close to the distal aorta branch level in the frame with the highest intensity and copied to all other frames to obtain the ^18F-cytochrome C intensity as a function of time (input function).
In more detail, 6 input function candidates were generated from 6 sphere-VOIs with diameters of 5, 6, 7, 8, 9, and 10 mm centered on the maximal signal intensity from the vessels and used for regression analyses to obtain an unbiased estimate of the area under the input function (AUC). […] An unbiased AUC was obtained from the regression analysis using a VOI-volume (x in regression equation) corresponding to a blood vessel diameter of 2.41 mm as measured by the ruler function with the software on the contrast CT images (n=8 images from 8 rats, SD=0.02). This approach was verified by ex vivo blood and kidney samples in a separate set of rats (n=8), i.e. the ^18F-clearances obtained by ex vivo sampling were not different from those obtained by the PET images. The same approach was adopted for mice using sphere diameters of 1, 1.5, 2, 2.5, 3, 3.5, and 4 mm and abdominal vessel diameter of 0.9 mm (n=8 mice, SD=0.07). The auto segmentation tool was used to collect the ^18F-signals from both kidneys at 5.5 minutes using thresholds that gave VOI-volumes that matched the kidney volumes as measured by contrast CT. The total kidney ^18F-activity was calculated as the mean VOI-intensity multiplied with the kidney cortex volume (total kidney volume from CT×2/3) and divided by AUC to obtain GFR.

Mouse PET-CT GFR = type: in vivo; details: male C3H mice
Procedure: as §1, with “Images were reconstructed in 1-5 coincidence mode using the Tera-Tomo 3D reconstruction algorithm (Mediso) with 4 iterations/6 subsets, corrected for attenuation and scatter with a resulting 0.4 mm^3 voxel size. The PET acquisition was reconstructed to 15 timeframes: 6×5 s; 6×30 s; 3×120 s.” left out
In more detail, 6 input function candidates were generated from 6 sphere-VOIs with diameters of 5, 6, 7, 8, 9, and 10 mm centered on the maximal signal intensity from the vessels and used for regression analyses to obtain an unbiased estimate of the area under the input function (AUC). […] An unbiased AUC was obtained from the regression analysis using a VOI-volume (x in regression equation) corresponding to a blood vessel diameter of 2.41 mm as measured by the ruler function with the software on the contrast CT images (n=8 images from 8 rats, SD=0.02). […] The auto segmentation tool was used to collect the ^18F-signals from both kidneys at 5.5 minutes using thresholds that gave VOI-volumes that matched the kidney volumes as measured by contrast CT. […]

Question: Which results are given for `CC(=O)N(CC(O)CO)c1c(I)c(C(=O)NCC(O)CO)c(I)c(C(=O)NCC(O)CO)c1I` (stereo not shown) [Iohexol]?
Answer: GFR relative to the initial control value (iohexol) (Iohexol plasma clearance; 3 weeks of adenine): −50%; GFR relative to the initial control value (iohexol) (Iohexol plasma clearance; 7 weeks of adenine): −20%; GFR Iohexol/100 g (Iohexol plasma clearance; SD female rats (n = 6)): 0.73 ± 0.07 ml/min · 100 g; k, plasma disappearance rate constant of iohexol for the second mono-exponential phase (Iohexol plasma clearance; SD female rats (n = 6)): 0.026 ± 0.002 min⁻¹; iohexol-based GFR (Iohexol plasma clearance; SD females (n=6), FIG. 5D): 2.3 ± 0.3 mL/min; GFR Iohexol/100 g (Iohexol plasma clearance; SD male rats (n = 8)): 0.59 ± 0.06 ml/min · 100 g; k, plasma disappearance rate constant of iohexol for the second mono-exponential phase (Iohexol plasma clearance; SD male rats (n = 8)): 0.025 ± 0.002 min⁻¹; GFR Iohexol/100 g (Iohexol plasma clearance; Wistar male rats (n = 6)): 0.64 ± 0.01 ml/min · 100 g; k, plasma disappearance rate constant of iohexol for the second mono-exponential phase (Iohexol plasma clearance; Wistar male rats (n = 6)): 0.027 ± 0.002 min⁻¹; clearance (Iohexol plasma clearance; intravenous, SD male rats, baseline before 0.35% adenine (CKD model), read-out: Mean GFR estimated from iohexol clearance): 2.89 ± 0.14 mL/min; clearance (Iohexol plasma clearance; iv, SD female rats (n = 6), read-out: GFR Iohexol (iohexol clearance)): 2.25 ± 0.26 mL/min; clearance (Iohexol plasma clearance; iv, SD male rats (n = 8), read-out: GFR Iohexol (iohexol clearance)): 2.89 ± 0.12 mL/min; clearance (Iohexol plasma clearance; iv, Wistar male rats (n = 6), read-out: GFR Iohexol (iohexol clearance)): 2.84 ± 0.34 mL/min; clearance [1]: 0.51 ± 0.13 mL/min

Question: With “^18F-cytochrome C: Cytochrome C from bovine heart labelled with [^18F]F-Py-TFP, comprising a 6-[^18F]fluoropyridine-3-carboxy group” as the molecule, how does the “Dimer formation / protein binding (size exclusion HPLC elution pattern)” value (“Dimer formation / protein binding” for short) [2] read?
Answer: no sign of dimer formation or protein binding

Question: What about the “Involvement of other organs such as liver and spleen” value [3] of the same molecule?
Answer: negligible involvement of other organs

Question: What about the “Time of ^18F signal appearance in the bladder” value ([3]; iv) of the same molecule?
Answer: less than 10 minutes

Question: And the “Time of ^18F signal peak over the large abdominal vessels” value ([3]; iv)?
Answer: less than 1 minute

Question: And the “GFR relative to the initial control value (PET-CT)” value ([4]; 3 weeks of adenine)?
Answer: −50%

Question: And the “GFR relative to the initial control value (PET-CT)” value ([4]; 7 weeks of adenine)?
Answer: −20%

Question: And the “GFR (PET)” value ([4]; SD female rats (n = 6))?
Answer: 1.88 ± 0.16 mL/min

Question: And the “GFR/100 g (PET)” value ([4]; SD female rats (n = 6))?
Answer: 0.61 ± 0.06 ml/min · 100 g rat

Question: And the “PET-CT GFR” value ([4]; SD females (n=6), FIG. 5D)?
Answer: 2.3 ± 0.3 mL/min

Question: What about the “GFR (PET)” value ([4]; SD male rats (n = 8)) of the same molecule?
Answer: 3.20 ± 0.12 mL/min

Question: What about the “GFR/100 g (PET)” value ([4]; SD male rats (n = 8)) of the same molecule?
Answer: 0.66 ± 0.07 ml/min · 100 g rat

Question: And the “Mean GFR, PET-CT value” ([4]; SD male rats, baseline before 0.35% adenine (CKD model))?
Answer: 2.94 ± 0.12 mL/min

Question: And the “GFR (PET)” value ([4]; Wistar male rats (n = 6))?
Answer: 3.01 ± 0.35 mL/min

Question: What about the “GFR/100 g (PET)” value ([4]; Wistar male rats (n = 6)) of the same molecule?
Answer: 0.68 ± 0.11 ml/min · 100 g rat

Question: And the “GFR measured with PET” value (Mouse PET-CT GFR)?
Answer: 0.55 ± 0.12 mL/min

B1: unlabelled cystatin C: Human cystatin C purchased from Nordic BioSite, unlabelled (protein, UniProt P01034 27-146, looked up)
Cystatin-C: SSPGKPPRLVGGPMDASVEEEGVRRALDFAVGEYNKASNDMYHSRALQVVRARKQIVAGVNYFLDVELGRTTCTKTQPNLDNCPFHDQPHLKRKAFCSFQIYAVPWQGTMTLSKSTCQDA
Question: With B1 as the molecule, how does the “Dimer formation / protein binding” value [2] read?
Answer: appeared mainly as dimers

B2: ^124I-labelled cystatin C: Human cystatin C (Nordic BioSite) labelled with ^124I for PET by Iodo-Gen (protein, UniProt P01034 27-146, looked up)
Cystatin-C: SSPGKPPRLVGGPMDASVEEEGVRRALDFAVGEYNKASNDMYHSRALQVVRARKQIVAGVNYFLDVELGRTTCTKTQPNLDNCPFHDQPHLKRKAFCSFQIYAVPWQGTMTLSKSTCQDA
modifications: 124I label
notes: Human cystatin C (Nordic BioSite) labelled with ^124I for PET by Iodo-Gen
Question: Which “Dimer formation / protein binding” value [2] does the source give for B2 here?
Answer: appeared mainly as dimers
